Measurements as given in patent US7053041B1, “Methods and compositions useful for inhibition of αvβ5mediated angiogenesis” (The Scripps Research Institute, priority 1996, dated 2006).

Tests used:
[1] = system: TNF-α mediated angiogenesis; experiment: chick CAM assay, TNF-α-induced angiogenesis; assay type: in vivo; conditions: TNF-α 1.0 μg/ml; antibodies 75 μg per embryo, calphostin C 100 nM
Procedure: The above growth factors (cytokines), including bFGF and VEGF, were separately applied at a concentration of 1.0 μg/ml to the 10 day old CAM model as previously described. PMA was used at a concentration of 20 ng/ml.
After 24 hours after growth factor treatment, the antibodies, LM609 and P1F6, or the protein kinase C (PKC) inhibitor, calphostin C, were separately provided to the CAM model, either by a single intravascular dose as described above or by topical administration as described below in the next example. For intravascular injections over the next 3 day consecutive period, the antibodies were used at a concentration of 75 μg per embryo and the calphostin C was at a dosage of 100 nM.
On day 13, filter discs and associated CAM tissue were dissected and analyzed for angiogenesis with a stereo microscope. Angiogenesis was scored in a double blind manner by analyzing the number and extent of branching of the blood vessels within the area of the discs. The scores ranged from low (1) to high (4). The angiogenesis index was determined by subtracting a background score of 1 from all data. Experiments were repeated 2–4 times with 5–6 embryos per condition.

CS-1 melanoma tumors = experiment: CS-1 melanoma tumor growth on chick embryo CAM, intravenous mAbs; assay type: in vivo; conditions: 100 to 300 μg mAb once intravenously; 7 days
Procedure: Angiogenesis is induced in the CAM assay system by direct apposition of a tumor fragment on the CAM. Preparation of the chick embryo CAM is identical to the procedure described above. Instead of a filter paper disk, a 50 milligram (mg) to 55 mg in weight fragment of one αvβ5-negative tumor resulting from growth of cell line suspensions described below, is placed on the CAM in an area originally devoid of blood vessels.
In one embodiment, hamster melanoma cells, CS-1, obtained from Dr. Caroline Damsky from University of California at San Francisco, were used in the CAM assay as described above for formation of melanoma tumors. Following the transfer of approximately a 50 mg CS-1 tumor fragment on a new 10 day chick embryo CAM, separate preparations received an intravenous injections of either 100 μg or 300 μg of P1F6 antibody, LM609 antibody or control CSAT (anti-β1) antibody. An additional control included a preparation that received no treatment. The results are discussed below in Example 6D.
Tumor-induced blood vessels prepared above were also treated with mAbs applied by intravenous injection. […] After this time period, the tumors were resected and analyzed by their weight to determine the effect of antibody exposure on tumor growth or suppression.

B1: LM609: mouse monoclonal antibody, anti-αvβ3 (antibody, V domains shown)
VH: EVQLEESGGGLVKPGGSLKLSCAASGFAFSSYDMSWVRQIPEKRLEWVAKVSSGGGSTYYLDTVQGRFTISRDNAKNTLYLQMSSLNSEDTAMYYCARHNYGSFAYWGQGTLVTVSA
VL: ELVMTQTPATLSVTPGDSVSLSCRASQSISNHLHWYQQKSHESPRLLIKYASQSISGIPSRFSGSGSGTDFTLSINSVETEDFGMYFCQQSNSWPHTFGGGTKLEIKRA
[1]
  effect on CAM angiogenesis in response to TNF-α (angiogenesis index): blocked angiogenesis
CS-1 melanoma tumors
  inhibition of CS-1 tumor growth: also inhibited tumor growth, however, less effective than that with P1F6
